Several values for one entry are separate records, joined by “and”; a condition that tells them apart may be missing. Equal entries are not always repeated.

Drawing on publication PMC12500691, this text covers IC50, Kd and stoichiometry N for three substances.

For assay [1], the target named is SARS-CoV-2 Spike_(Strep) (SARS-CoV-2 (Wuhan variant)) (UniProt P0DTC2). In words: SPR.
Assay [2] deals with SARS-CoV-2 extended S1 subunit (SARS-CoV-2 (Wuhan variant)) (UniProt P0DTC2). Put plainly: SPR.
Assay [3] addresses SARS-CoV-2 SpikeHis (SARS-CoV-2 (Wuhan variant)) (UniProt P0DTC2). In words: SPR.
Assay [4] deals with SARS-CoV-2 Spike_(Strep) (SARS-CoV-2 (Wuhan variant)) (UniProt P0DTC2). In words: negative stain electron microscopy.

human angiotensin converting enzyme 2, sequence (Q9BYF1 20-611): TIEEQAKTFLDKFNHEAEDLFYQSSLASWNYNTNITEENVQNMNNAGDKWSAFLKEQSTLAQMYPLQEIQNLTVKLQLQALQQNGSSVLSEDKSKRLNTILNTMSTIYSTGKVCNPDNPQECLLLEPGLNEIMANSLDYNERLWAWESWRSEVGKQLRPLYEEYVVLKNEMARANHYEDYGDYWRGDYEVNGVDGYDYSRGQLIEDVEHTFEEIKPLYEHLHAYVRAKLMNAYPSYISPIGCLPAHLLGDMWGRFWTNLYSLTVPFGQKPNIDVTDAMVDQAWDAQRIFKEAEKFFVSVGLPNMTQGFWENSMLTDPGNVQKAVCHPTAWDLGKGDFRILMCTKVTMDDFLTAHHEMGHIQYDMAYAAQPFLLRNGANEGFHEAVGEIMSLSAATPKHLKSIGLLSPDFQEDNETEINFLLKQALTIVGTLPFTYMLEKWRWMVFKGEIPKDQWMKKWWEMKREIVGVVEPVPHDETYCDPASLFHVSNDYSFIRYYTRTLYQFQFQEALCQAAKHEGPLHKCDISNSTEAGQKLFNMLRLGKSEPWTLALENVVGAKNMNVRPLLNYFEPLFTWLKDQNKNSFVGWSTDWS

Regarding LL-37 (peptide), the IC50 in assay [1] was 670 nM; in assay [2], 160 nM. Besides, the Kd is 410 nM in assay [1], 200 nM in assay [2] and 410 nM in assay [3]. In assay [1], this substance returned a stoichiometry N of 6.
In the case of gold-labeled LL-37 (peptide), the stoichiometry N in assay [4] was 4 and 7.
In turn, “human angiotensin converting enzyme 2 (from UniProt Q9BYF1-1 20-611) (receptor)” showed a Kd in assay [2] of 610 nM.
